We go through seven molecules from US12692294B2, “Engineered NRG-1 variants with improved selectivity toward ErbB4 but not against ErbB3” (Amgen Inc., priority 2021, dated 2026).

Assay [1] addresses T1, ErbB3 (Rattus norvegicus, UniProt Q62799).
T1 construct: forming the ErbB2/ErbB4 complex in cardiomyocytes and the ErbB2/ErbB3 complex in Schwann cells; endogenous in cells; host or cells: rat Schwann cells
In words: In vitro phosphorylation of Akt in rat Schwann cells. The format is cell-based. Conditions: Akt (Serine 473) phosphorylation, 15 minutes treatment. The protocol: (§1) In Vitro Phosphorylation of Akt in Neonatal Rat Cardiomyocytes and Rat Schwann Cells by Neuregulin Variants
(§2) Specificity of neuregulin variants towards cardiomyocytes (ErbB4) versus Schwann cells (ErbB3) was tested by measuring Akt activity generated by formation of the ErbB2/ErbB4 and ErbB2/ErbB3 complexes. Upon activation by neuregulin, the ErbB4 and ErbB3 receptors dimerize preferentially with the ErbB2 co-receptor, forming the ErbB2/ErbB4 complex in cardiomyocytes and the ErbB2/ErbB3 complex in Schwann cells, both of which signal through the Akt pathway. Neonatal rat cardiomyocytes were isolated from hearts of Sprague Dawley rat pups at 0 to 4 days old according to manufacturer's protocol using the Neomyt kit and plated on Surecoat plates in NS media containing serum (all from Cellultron Life Technologies, Baltimore, MD). Rat Schwann cells were plated in Poly-D-Lysine coated plates with Dulbecco's modified Eagle's media (DMEM) supplemented with fetal bovine serum (Thermo Fisher) and forskolin (Millipore Sigma).
(§3) After a 24-hour incubation in a humidified incubator maintained at 37° C. and 5% CO2, cardiomyocytes and Schwann cells were washed with serum free media and incubated an additional 16 hours in DMEM supplemented with bovine serum albumin (Sigma). Both cell lines were then treated with titrations of the neuregulin variant molecules for 15 minutes, upon which cells were lysed in lysis buffer (Meso Scale Discovery (MSD)). For detection of Akt phosphorylation, lysates were added to the Multi-Spot 96-Well 4-Spot Phospho (Serine 473)/Total Akt plates (MSD), incubated according to the manufacturer's protocol and read in the SECTOR Imager 6000 (MSD). For both cell assays, the percent phosphorylation of Akt was calculated by multiplying the phospho Akt signal by 2, then dividing by the phospho Akt signal added to the total Akt signal and then multiplying by 100. The phosphorylation of Akt data points were fitted using a log (agonist) versus response, variable slope (4 parameters) analysis in GraphPad Prism to generate EC50 curves. The CM % agonism reflect the top value of the data points.

In assay [2] the target is T2, ErbB4 (Rattus norvegicus, UniProt Q62956).
T2 construct: forming the ErbB2/ErbB4 complex in cardiomyocytes and the ErbB2/ErbB3 complex in Schwann cells; endogenous in cells; host or cells: primary neonatal rat cardiomyocytes (Sprague Dawley pups, 0 to 4 days old)
In words: In vitro phosphorylation of Akt in neonatal rat cardiomyocytes. The format is cell-based. Conditions: for EC50: Akt (Serine 473) phosphorylation, neonatal rat cardiomyocytes, 15 minutes treatment, read-out: Cardiomyocyte (CM) (ErbB4) Avg EC50; for Selectivity SC/CM: ratio of EC50s Schwann cells/cardiomyocytes; for CM % Agonism AVG: top value of the Akt phosphorylation data points in cardiomyocytes, wild-type control 100. How it is done:
as §1, §2, §3

Where “and” joins values, the source holds several entries; their conditions need not be identical. Equal entries are not always repeated.

T2 sequence (Q62956 26-1308): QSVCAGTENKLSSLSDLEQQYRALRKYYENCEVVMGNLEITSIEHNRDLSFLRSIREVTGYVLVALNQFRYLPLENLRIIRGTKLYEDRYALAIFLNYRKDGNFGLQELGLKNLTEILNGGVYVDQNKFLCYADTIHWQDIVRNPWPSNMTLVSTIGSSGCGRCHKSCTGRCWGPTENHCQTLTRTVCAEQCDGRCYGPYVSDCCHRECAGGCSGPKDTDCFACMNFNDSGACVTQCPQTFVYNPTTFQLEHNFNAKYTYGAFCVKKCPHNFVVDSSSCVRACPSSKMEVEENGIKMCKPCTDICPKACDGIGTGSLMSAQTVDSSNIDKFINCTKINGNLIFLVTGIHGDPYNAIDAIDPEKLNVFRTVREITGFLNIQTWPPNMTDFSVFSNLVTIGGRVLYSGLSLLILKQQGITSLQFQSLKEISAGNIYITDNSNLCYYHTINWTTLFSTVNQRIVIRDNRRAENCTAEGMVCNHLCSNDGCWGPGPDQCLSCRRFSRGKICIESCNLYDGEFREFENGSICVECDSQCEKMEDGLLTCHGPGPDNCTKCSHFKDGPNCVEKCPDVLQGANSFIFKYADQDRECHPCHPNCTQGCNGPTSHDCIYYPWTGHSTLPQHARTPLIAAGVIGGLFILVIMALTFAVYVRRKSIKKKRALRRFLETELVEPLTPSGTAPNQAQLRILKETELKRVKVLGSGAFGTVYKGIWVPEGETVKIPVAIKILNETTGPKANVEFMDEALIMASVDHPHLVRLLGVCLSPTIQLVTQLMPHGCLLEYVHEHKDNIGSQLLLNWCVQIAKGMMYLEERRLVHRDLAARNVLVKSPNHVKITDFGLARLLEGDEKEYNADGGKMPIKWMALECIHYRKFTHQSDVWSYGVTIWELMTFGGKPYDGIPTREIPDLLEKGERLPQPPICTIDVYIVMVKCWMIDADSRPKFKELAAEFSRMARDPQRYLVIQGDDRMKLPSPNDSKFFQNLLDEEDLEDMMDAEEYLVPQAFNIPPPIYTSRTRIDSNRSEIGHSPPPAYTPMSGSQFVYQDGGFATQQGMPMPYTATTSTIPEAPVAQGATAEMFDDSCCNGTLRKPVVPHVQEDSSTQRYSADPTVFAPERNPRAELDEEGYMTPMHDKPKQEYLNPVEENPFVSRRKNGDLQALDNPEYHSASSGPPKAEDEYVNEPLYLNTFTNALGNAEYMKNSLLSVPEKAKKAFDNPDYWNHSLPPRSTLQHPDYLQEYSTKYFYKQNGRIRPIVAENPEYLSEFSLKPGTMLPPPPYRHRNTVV
T2 sequence (P06494 23-1257 partner): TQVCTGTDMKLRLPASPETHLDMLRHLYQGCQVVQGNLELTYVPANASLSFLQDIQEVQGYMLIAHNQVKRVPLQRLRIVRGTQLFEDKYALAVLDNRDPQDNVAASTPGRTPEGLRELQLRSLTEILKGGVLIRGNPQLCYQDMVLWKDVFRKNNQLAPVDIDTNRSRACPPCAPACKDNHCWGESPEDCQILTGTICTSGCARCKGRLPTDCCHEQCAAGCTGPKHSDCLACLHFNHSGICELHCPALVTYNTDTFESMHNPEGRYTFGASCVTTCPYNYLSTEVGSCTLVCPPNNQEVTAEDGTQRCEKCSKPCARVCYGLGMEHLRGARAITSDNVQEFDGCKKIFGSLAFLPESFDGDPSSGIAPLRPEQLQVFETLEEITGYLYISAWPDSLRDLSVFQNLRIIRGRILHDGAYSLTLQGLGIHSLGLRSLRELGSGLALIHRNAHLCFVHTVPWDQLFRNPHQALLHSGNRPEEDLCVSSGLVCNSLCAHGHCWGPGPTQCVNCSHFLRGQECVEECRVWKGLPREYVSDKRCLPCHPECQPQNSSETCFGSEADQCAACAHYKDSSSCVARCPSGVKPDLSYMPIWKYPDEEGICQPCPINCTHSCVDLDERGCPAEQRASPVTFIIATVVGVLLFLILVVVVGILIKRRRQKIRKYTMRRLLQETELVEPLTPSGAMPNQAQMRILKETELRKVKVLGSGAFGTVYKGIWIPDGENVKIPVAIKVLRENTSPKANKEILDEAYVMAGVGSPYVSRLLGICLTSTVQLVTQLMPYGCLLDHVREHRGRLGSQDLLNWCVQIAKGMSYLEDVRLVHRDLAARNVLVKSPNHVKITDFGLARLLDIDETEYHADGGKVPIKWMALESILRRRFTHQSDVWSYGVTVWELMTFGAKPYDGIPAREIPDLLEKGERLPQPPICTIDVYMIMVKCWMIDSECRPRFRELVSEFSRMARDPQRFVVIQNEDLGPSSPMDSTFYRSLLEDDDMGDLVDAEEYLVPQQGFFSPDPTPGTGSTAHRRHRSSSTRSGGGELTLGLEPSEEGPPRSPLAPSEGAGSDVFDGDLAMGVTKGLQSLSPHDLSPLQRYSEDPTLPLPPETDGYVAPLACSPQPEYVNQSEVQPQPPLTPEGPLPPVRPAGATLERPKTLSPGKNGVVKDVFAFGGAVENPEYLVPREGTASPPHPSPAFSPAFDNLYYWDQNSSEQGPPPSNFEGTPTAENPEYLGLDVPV
T1 sequence (Q62799 20-1339): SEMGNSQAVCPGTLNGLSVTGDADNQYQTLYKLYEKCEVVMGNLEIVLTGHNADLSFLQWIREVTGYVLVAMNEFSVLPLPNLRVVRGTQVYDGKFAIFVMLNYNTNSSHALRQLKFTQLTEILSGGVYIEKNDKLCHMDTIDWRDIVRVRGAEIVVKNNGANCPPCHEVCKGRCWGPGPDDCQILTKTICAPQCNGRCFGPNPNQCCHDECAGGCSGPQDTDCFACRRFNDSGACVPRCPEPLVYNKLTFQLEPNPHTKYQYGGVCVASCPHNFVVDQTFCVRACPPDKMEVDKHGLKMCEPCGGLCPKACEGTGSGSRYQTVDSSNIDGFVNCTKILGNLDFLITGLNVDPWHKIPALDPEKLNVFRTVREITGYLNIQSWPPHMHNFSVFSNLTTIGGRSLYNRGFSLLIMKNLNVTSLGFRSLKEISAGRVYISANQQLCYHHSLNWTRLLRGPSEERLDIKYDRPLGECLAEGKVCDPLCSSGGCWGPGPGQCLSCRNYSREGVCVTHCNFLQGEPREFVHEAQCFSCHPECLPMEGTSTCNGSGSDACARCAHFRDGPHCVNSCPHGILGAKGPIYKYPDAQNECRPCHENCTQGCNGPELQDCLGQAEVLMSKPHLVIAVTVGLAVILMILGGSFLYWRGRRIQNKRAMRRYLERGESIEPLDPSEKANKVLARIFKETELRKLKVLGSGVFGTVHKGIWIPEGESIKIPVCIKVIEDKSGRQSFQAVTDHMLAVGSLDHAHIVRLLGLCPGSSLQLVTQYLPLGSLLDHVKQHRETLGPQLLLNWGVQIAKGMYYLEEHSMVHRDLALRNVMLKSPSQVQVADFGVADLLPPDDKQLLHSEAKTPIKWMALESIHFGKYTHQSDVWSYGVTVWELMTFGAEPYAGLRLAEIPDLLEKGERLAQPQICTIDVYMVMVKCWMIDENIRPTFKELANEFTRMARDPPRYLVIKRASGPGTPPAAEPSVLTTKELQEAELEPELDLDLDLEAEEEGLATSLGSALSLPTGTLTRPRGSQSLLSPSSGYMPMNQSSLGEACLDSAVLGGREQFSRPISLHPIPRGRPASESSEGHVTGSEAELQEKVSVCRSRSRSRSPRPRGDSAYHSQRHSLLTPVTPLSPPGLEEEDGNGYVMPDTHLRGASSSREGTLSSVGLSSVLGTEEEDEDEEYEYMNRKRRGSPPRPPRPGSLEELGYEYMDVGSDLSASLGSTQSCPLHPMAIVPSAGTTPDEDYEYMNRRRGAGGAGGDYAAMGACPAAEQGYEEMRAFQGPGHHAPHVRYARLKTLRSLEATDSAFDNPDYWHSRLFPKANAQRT
T1 sequence (P06494 23-1257 partner): as the sequence (P06494 23-1257 partner) above

B1: :huNRG1(S177-F229)(NRGE1C)::2X(G4A)G4::huFcSEFL2v131(+): Fc fusion of NRG1 variant SEQ ID NO:117 (protein)
chain: SHLVKCGEKHKSFCVNGGECFMIEGPSNPSRYLCKCPNEFTGDRCQEDFMASFGGGGAGGGGAGGGGDKTHTCPPCPAPELLGGPSVFLFPPKPKDTLMISRTPEVTCVVVDVSHEDPEVKFNWYVDGVEVHNAKTKPCEEQYGSTYRCVSVLTVLHQDWLNGKEYKCKVSNKALPAPIEKTISKAKGQPREPQVYTLPPSREKMTKNQVSLTCLVKGFYPSDIAVEWESNGQPENNYKTTPPVLKSDGSFFLYSKLTVDKSRWQQGNVFSCSVMHEALHNHYTQKSLSLSPGKDKTHTCPPCPAPELLGGPSVFLFPPKPKDTLMISRTPEVTCVVVDVSHEDPEVKFNWYVDGVEVHNAKTKPCEEQYGSTYRCVSVLTVLHQDWLNGKEYKCKVSNKALPAPIEKTISKAKGQPREPQVYTLPPSREEMTENQVSLTCLVEGFYPSDIAVEWESNGQPENNYETTPPVLDSDGSFFLYSDLTVDKSRWQQGNVFSCSVMHEALHNHYTQKSLSLSPGK
modifications: huNRG1(S177-F229)(NRGE1C) ::2X(G4A)G4::huFcSEFL2v131(+)
Regarding B1, the “Schwann cells (SC) (ErbB3) Avg EC50 (M)” value in assay [1] was “inactive”. For the same molecule, in assay [2], the EC50 worked out at 3.4 nM, the “Selectivity SC/CM” value is given as above 10000 and the “CM % Agonism AVG” value is reported as 91.6%.

B2: :huNRG1(S177-F229)(NRGE1C)::2X(G4E)G4::huFcSEFL2v131(+): Fc fusion of NRG1 variant SEQ ID NO:117 (protein)
chain: SHLVKCGEKHKSFCVNGGECFMIEGPSNPSRYLCKCPNEFTGDRCQEDFMASFGGGGEGGGGEGGGGDKTHTCPPCPAPELLGGPSVFLFPPKPKDTLMISRTPEVTCVVVDVSHEDPEVKFNWYVDGVEVHNAKTKPCEEQYGSTYRCVSVLTVLHQDWLNGKEYKCKVSNKALPAPIEKTISKAKGQPREPQVYTLPPSREKMTKNQVSLTCLVKGFYPSDIAVEWESNGQPENNYKTTPPVLKSDGSFFLYSKLTVDKSRWQQGNVFSCSVMHEALHNHYTQKSLSLSPGKDKTHTCPPCPAPELLGGPSVFLFPPKPKDTLMISRTPEVTCVVVDVSHEDPEVKFNWYVDGVEVHNAKTKPCEEQYGSTYRCVSVLTVLHQDWLNGKEYKCKVSNKALPAPIEKTISKAKGQPREPQVYTLPPSREEMTENQVSLTCLVEGFYPSDIAVEWESNGQPENNYETTPPVLDSDGSFFLYSDLTVDKSRWQQGNVFSCSVMHEALHNHYTQKSLSLSPGK
modifications: huNRG1(S177-F229)(NRGE1C) ::2X(G4E)G4::huFcSEFL2v131(+)
B2: the “Schwann cells (SC) (ErbB3) Avg EC50 (M)” value in assay [1] was “inactive”. In addition, in assay [2], the EC50 came to 2.9 nM, the “Selectivity SC/CM” value is above 10000 and the “CM % Agonism AVG” value came out at 94%.

B3: :huNRG1(S177-F229)(NRGE1D)::2X(G4A)G4::huFcSEFL2v131(+): Fc fusion of NRG1 variant SEQ ID NO:126 (protein)
chain: SHLVKCGESHKSFCVNGGECYMVEGSSIPSRYLCKCPNEFTGDRCQEDFMASFGGGGAGGGGAGGGGDKTHTCPPCPAPELLGGPSVFLFPPKPKDTLMISRTPEVTCVVVDVSHEDPEVKFNWYVDGVEVHNAKTKPCEEQYGSTYRCVSVLTVLHQDWLNGKEYKCKVSNKALPAPIEKTISKAKGQPREPQVYTLPPSREKMTKNQVSLTCLVKGFYPSDIAVEWESNGQPENNYKTTPPVLKSDGSFFLYSKLTVDKSRWQQGNVFSCSVMHEALHNHYTQKSLSLSPGKDKTHTCPPCPAPELLGGPSVFLFPPKPKDTLMISRTPEVTCVVVDVSHEDPEVKFNWYVDGVEVHNAKTKPCEEQYGSTYRCVSVLTVLHQDWLNGKEYKCKVSNKALPAPIEKTISKAKGQPREPQVYTLPPSREEMTENQVSLTCLVEGFYPSDIAVEWESNGQPENNYETTPPVLDSDGSFFLYSDLTVDKSRWQQGNVFSCSVMHEALHNHYTQKSLSLSPGK
modifications: huNRG1(S177-F229)(NRGE1D) ::2X(G4A)G4::huFcSEFL2v131(+)
With B3, the “Schwann cells (SC) (ErbB3) Avg EC50 (M)” value in assay [1] is “inactive”. In addition, in assay [2], the EC50 was 2 nM, the “Selectivity SC/CM” value is above 10000 and the “CM % Agonism AVG” value was found to be 87.1%.

B4: :huNRG1(S177-F229)(NRGE1D)::2X(G4E)G4::huFcSEFL2v131(+): Fc fusion of NRG1 variant SEQ ID NO:126 (protein)
chain: SHLVKCGESHKSFCVNGGECYMVEGSSIPSRYLCKCPNEFTGDRCQEDFMASFGGGGEGGGGEGGGGDKTHTCPPCPAPELLGGPSVFLFPPKPKDTLMISRTPEVTCVVVDVSHEDPEVKFNWYVDGVEVHNAKTKPCEEQYGSTYRCVSVLTVLHQDWLNGKEYKCKVSNKALPAPIEKTISKAKGQPREPQVYTLPPSREKMTKNQVSLTCLVKGFYPSDIAVEWESNGQPENNYKTTPPVLKSDGSFFLYSKLTVDKSRWQQGNVFSCSVMHEALHNHYTQKSLSLSPGKDKTHTCPPCPAPELLGGPSVFLFPPKPKDTLMISRTPEVTCVVVDVSHEDPEVKFNWYVDGVEVHNAKTKPCEEQYGSTYRCVSVLTVLHQDWLNGKEYKCKVSNKALPAPIEKTISKAKGQPREPQVYTLPPSREEMTENQVSLTCLVEGFYPSDIAVEWESNGQPENNYETTPPVLDSDGSFFLYSDLTVDKSRWQQGNVFSCSVMHEALHNHYTQKSLSLSPGK
modifications: huNRG1(S177-F229)(NRGE1D) ::2X(G4E)G4::huFcSEFL2v131(+)
As for B4, the “Schwann cells (SC) (ErbB3) Avg EC50 (M)” value in assay [1] is “inactive”. Further, in assay [2], the EC50 worked out at 1.9 nM, the “Selectivity SC/CM” value is given as above 10000 and the “CM % Agonism AVG” value was determined as 91.9%.

B5: :huFcSEFL2(desK)vl31(+):G4SG4:huNRG1(S177-Q237)(NRGE1C): N-terminal Fc fusion of NRG1 variant SEQ ID NO:124 (protein)
chain: DKTHTCPPCPAPELLGGPSVFLFPPKPKDTLMISRTPEVTCVVVDVSHEDPEVKFNWYVDGVEVHNAKTKPCEEQYGSTYRCVSVLTVLHQDWLNGKEYKCKVSNKALPAPIEKTISKAKGQPREPQVYTLPPSREKMTKNQVSLTCLVKGFYPSDIAVEWESNGQPENNYKTTPPVLKSDGSFFLYSKLTVDKSRWQQGNVFSCSVMHEALHNHYTQKSLSLSPGGGGGSGGGGSHLVKCGEKHKSFCVNGGECFMIEGPSNPSRYLCKCPNEFTGDRCQEDFMASFYKAEELYQDKTHTCPPCPAPELLGGPSVFLFPPKPKDTLMISRTPEVTCVVVDVSHEDPEVKFNWYVDGVEVHNAKTKPCEEQYGSTYRCVSVLTVLHQDWLNGKEYKCKVSNKALPAPIEKTISKAKGQPREPQVYTLPPSREEMTENQVSLTCLVEGFYPSDIAVEWESNGQPENNYETTPPVLDSDGSFFLYSDLTVDKSRWQQGNVFSCSVMHEALHNHYTQKSLSLSPGK
modifications: huFcSEFL2(desK)v131(+)G4SG4huNRG1(S177-Q237) (NRGE1C)
Take B5: the “Schwann cells (SC) (ErbB3) Avg EC50 (M)” value in assay [1] was “inactive”. Besides, in assay [2], the EC50 was 0.3 nM, the “Selectivity SC/CM” value is above 10000 and the “CM % Agonism AVG” value amounted to 85.4%.

B6: :huFcSEFL2(desK)vl31(+):G4SG4:huNRG1(S177-Q237)(NRGE1D): N-terminal Fc fusion of NRG1 variant SEQ ID NO:131 (protein)
chain: DKTHTCPPCPAPELLGGPSVFLFPPKPKDTLMISRTPEVTCVVVDVSHEDPEVKFNWYVDGVEVHNAKTKPCEEQYGSTYRCVSVLTVLHQDWLNGKEYKCKVSNKALPAPIEKTISKAKGQPREPQVYTLPPSREKMTKNQVSLTCLVKGFYPSDIAVEWESNGQPENNYKTTPPVLKSDGSFFLYSKLTVDKSRWQQGNVFSCSVMHEALHNHYTQKSLSLSPGGGGGSGGGGSHLVKCGESHKSFCVNGGECYMVEGSSIPSRYLCKCPNEFTGDRCQEDFMASFYKAEELYQDKTHTCPPCPAPELLGGPSVFLFPPKPKDTLMISRTPEVTCVVVDVSHEDPEVKFNWYVDGVEVHNAKTKPCEEQYGSTYRCVSVLTVLHQDWLNGKEYKCKVSNKALPAPIEKTISKAKGQPREPQVYTLPPSREEMTENQVSLTCLVEGFYPSDIAVEWESNGQPENNYETTPPVLDSDGSFFLYSDLTVDKSRWQQGNVFSCSVMHEALHNHYTQKSLSLSPGK
modifications: huFcSEFL2(desK)v131(+)G4SG4huNRG1(S177-Q237) (NRGE1D)
As to B6, the “Schwann cells (SC) (ErbB3) Avg EC50 (M)” value in assay [1] was “inactive”. For the same molecule, in assay [2], the EC50 was found to be 0.23 nM, the “Selectivity SC/CM” value is on record as above 10000 and the “CM % Agonism AVG” value turned out to be 88.7%.

B7: Wild-type as control: wild-type neuregulin sequence used as control in the Akt assays; construct not specified (wild-type fragment: SEQ ID NO: 112) (protein)
chain: SHLVKCAEKEKTFCVNGGECFMVKDLSNPSRYLCKCPNEFTGDRCQNYVMASFYKAEELYQ
modifications: chains of the parent or of the whole protein
Take B7: in assay [2], the EC50 is 0.15 nM and 0.154 nM and 0.28 nM and 0.253 nM.

Usually EC50 stands for the midpoint of the concentration-response curve.
